Results as given in the supplement of paper PMC9732359.
± gives the uncertainty stated by the source.

Test: protein stability index of a GFP-peptide fusion (yeast GPS) (PSI 1-4); higher = more stable; sorted into four equal gates, so the index is relative within each strain
How it was run: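 Plasmids isolated from each sorting gate were PCR-amplified and Illumina-sequenced, and barcodes assigned the reads to strains. The gates, four of equal size, were set by GFP/Cherry fluorescence ratio on mid-log cultures in leucine-free medium. These cultures were yeast carrying a pooled library of tiled 17-residue yeast protein peptides fused downstream of GFP on a plasmid that also expresses Cherry. The protein stability index is the sum of every gate's read frequency times its gate number.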

DWGQALRLLLLLIEFPY [YJR042W/NUP85]
protein stability index (doa10∆): 1.44 ± 0.05
protein stability index (pdr5∆): 1.29 ± 0.049
protein stability index (san1∆): 1.39 ± 0.067
protein stability index (ubr1∆): 1.21 ± 0.034

DWQKEDGIFSSKTDNIE [YMR153W/NUP53]
protein stability index (san1∆): 3.22 ± 0.15
protein stability index (ubr1∆): 2.86 ± 0.2

DYDVSKKASEISVSSRS [SRP14]
protein stability index (doa10∆): 3.52 ± 0.15
protein stability index (san1∆): 3.2 ± 0.15
protein stability index (ubr1∆): 2.98 ± 0.21

DYINELSNSNRFELHGD [REC8]
protein stability index (doa10∆): 2.78 ± 0.12
protein stability index (pdr5∆): 3.08 ± 0.11
protein stability index (san1∆): 3 ± 0.092
protein stability index (ubr1∆): 3.03 ± 0.13

DYSINSRYEPKVFDCGD [PRE7]
protein stability index (doa10∆): 2.73 ± 0.076
protein stability index (pdr5∆): 2.59 ± 0.053
protein stability index (san1∆): 2.9 ± 0.068
protein stability index (ubr1∆): 2.59 ± 0.063

EAAAAEEGEEEEVKEEV [RPS0B]
protein stability index (doa10∆): 3.24 ± 0.13
protein stability index (pdr5∆): 3.48 ± 0.049
protein stability index (san1∆): 3.19 ± 0.069
protein stability index (ubr1∆): 3.37 ± 0.11

EAELSSTKVENSAIIQN [YIL149C/MLP2]
protein stability index (doa10∆): 2.77 ± 0.11
protein stability index (pdr5∆): 2.87 ± 0.069
protein stability index (san1∆): 2.98 ± 0.056
protein stability index (ubr1∆): 3.13 ± 0.062

EAGASAELDDCRGVSEN [RPO21]
protein stability index (doa10∆): 3.47 ± 0.11
protein stability index (pdr5∆): 3.54 ± 0.15
protein stability index (san1∆): 3.26 ± 0.08
protein stability index (ubr1∆): 3.6 ± 0.13

EAGLQLCRQGHNMLNLL [PRP8]
protein stability index (doa10∆): 2.24 ± 0.079
protein stability index (pdr5∆): 2.29 ± 0.12
protein stability index (san1∆): 2.07 ± 0.14
protein stability index (ubr1∆): 1.99 ± 0.06

EAHNKALNQFKRKLLEH [RPT4]
protein stability index (doa10∆): 3.32 ± 0.27
protein stability index (pdr5∆): 3.14 ± 0.17
protein stability index (san1∆): 3.46 ± 0.12
protein stability index (ubr1∆): 3.4 ± 0.15

EAIRDPKNSSSPVQIAF [SSN8]
protein stability index (doa10∆): 2.55 ± 0.17
protein stability index (pdr5∆): 2.96 ± 0.15
protein stability index (san1∆): 1.92 ± 0.22
protein stability index (ubr1∆): 2.98 ± 0.12

EALLVVLVSSVTEANII [RPS12]
protein stability index (pdr5∆): 1.15 ± 0.14
protein stability index (ubr1∆): 1.13 ± 0.11

EALNLLKFFLVDENETV [LIN1]
protein stability index (doa10∆): 1.52 ± 0.06
protein stability index (pdr5∆): 1.52 ± 0.043
protein stability index (san1∆): 1.4 ± 0.12
protein stability index (ubr1∆): 1.14 ± 0.054

EALVERRRAFKRSQKKH [RPB4]
protein stability index (doa10∆): 3.12 ± 0.099
protein stability index (pdr5∆): 3.2 ± 0.081
protein stability index (san1∆): 3.22 ± 0.062
protein stability index (ubr1∆): 3.31 ± 0.11

EAMLRENIEVILSNGRM [SNF12]
protein stability index (doa10∆): 2.79 ± 0.063
protein stability index (pdr5∆): 2.82 ± 0.061
protein stability index (san1∆): 2.86 ± 0.046
protein stability index (ubr1∆): 2.75 ± 0.059

EAMMLKEEGLQQFNLHE [MED1]
protein stability index (doa10∆): 2.97 ± 0.16
protein stability index (pdr5∆): 3.26 ± 0.15
protein stability index (san1∆): 3.17 ± 0.12
protein stability index (ubr1∆): 2.61 ± 0.12

EAVDDVFQAKMMDMLKQ [RPN11]
protein stability index (doa10∆): 2.42 ± 0.053
protein stability index (pdr5∆): 2.58 ± 0.058
protein stability index (san1∆): 2.02 ± 0.061
protein stability index (ubr1∆): 2.79 ± 0.065

ECPAIPIFNYIFTEKIY [YJL039C/NUP192]
protein stability index (doa10∆): 1.34 ± 0.035
protein stability index (pdr5∆): 1.46 ± 0.038
protein stability index (san1∆): 1.43 ± 0.071
protein stability index (ubr1∆): 1.4 ± 0.034

EDARRNPNPSSQRAQVV [RPC37]
protein stability index (doa10∆): 3.18 ± 0.073
protein stability index (pdr5∆): 3.26 ± 0.064
protein stability index (san1∆): 3.02 ± 0.064
protein stability index (ubr1∆): 3.38 ± 0.054

EDCDLVIMALMLMSKIG [POP5]
protein stability index (doa10∆): 1.46 ± 0.038
protein stability index (pdr5∆): 1.89 ± 0.053
protein stability index (san1∆): 1.81 ± 0.069
protein stability index (ubr1∆): 2.32 ± 0.037

EDDNNNVEKPSSKPAFN [YLR335W/NUP2]
protein stability index (doa10∆): 3.12 ± 0.061
protein stability index (pdr5∆): 3.2 ± 0.071
protein stability index (san1∆): 3.14 ± 0.049
protein stability index (ubr1∆): 3.2 ± 0.063

EDGPRPFKVFLDIGLQR [RPL5]
protein stability index (doa10∆): 3 ± 0.068
protein stability index (pdr5∆): 3.17 ± 0.058
protein stability index (san1∆): 3.06 ± 0.052
protein stability index (ubr1∆): 3.04 ± 0.033

EDGTFSVLYPDELEDDT [RRP43]
protein stability index (doa10∆): 3.23 ± 0.086
protein stability index (pdr5∆): 3.1 ± 0.077
protein stability index (san1∆): 3.16 ± 0.061
protein stability index (ubr1∆): 3.11 ± 0.063

EDHVEDHRKRKKSKIQL [LIN1]
protein stability index (doa10∆): 3.17 ± 0.093
protein stability index (pdr5∆): 3.25 ± 0.082
protein stability index (san1∆): 3.12 ± 0.059
protein stability index (ubr1∆): 3.16 ± 0.052

EDISKATHLPKDNVEHL [RPN9]
protein stability index (doa10∆): 2.91 ± 0.084
protein stability index (pdr5∆): 3.13 ± 0.076
protein stability index (san1∆): 3.12 ± 0.091
protein stability index (ubr1∆): 3.26 ± 0.061

EDKQNIEINEDNSQDDQ [RRI2]
protein stability index (doa10∆): 3.44 ± 0.073
protein stability index (pdr5∆): 3.25 ± 0.066
protein stability index (san1∆): 3.23 ± 0.039
protein stability index (ubr1∆): 3.23 ± 0.04

EDNAGVIANPKGEMKGS [RPL23A]
protein stability index (doa10∆): 1.82 ± 0.18
protein stability index (pdr5∆): 1.92 ± 0.056
protein stability index (san1∆): 2.28 ± 0.13
protein stability index (ubr1∆): 1.85 ± 0.059
